Publication PMC6379675, “Structural insights into chromosome attachment to the nuclear envelope by an inner nuclear membrane protein Bqt4 in fission yeast” (Nucleic Acids Research, 2018)

B1: Lem2_(261–279) [S. pombe] / Bqt4_(2–140), N-terminal domain of Bqt4 [S. pombe] (parent complex)
chain 1: SAEEDDELFQNYVLQQTRK
chain 2: TENEKSRSLPAERNPLYKDDTLDHTPLIPKCRAQVIEFPDGPATFVRLKCTNPESKVPHFLMRMAKDSSISATSMFRSAFPKATQEEEDLEMRWIRDNLNPIEDKRVAGLWVPPADALALAKDYSMTPFINALLEASST
B2: Sad1 (residues 88–101) [S. pombe] / Bqt4_(2–140), N-terminal domain of Bqt4 [S. pombe] (parent complex)
chain 1: SDNEEFENVVKNGH
chain 2: B1 chain 2
B3: Rap1_(479–527) [S. pombe] / Bqt4_(2–140), N-terminal domain of Bqt4 [S. pombe] (parent complex)
chain 1: EIPLLSDYSDSENISEKSSDDEEAFEKQVTSSYSSPIKVKSQGKSSKGS
chain 2: B1 chain 2

Variants of: B1
Assay: ITC; parent: 530 nM

Kd	Variant
3.2 µM	chain 2 R47E
46 µM	chain 2 F60A

Variants of: B2
Assay: ITC; parent: 3.7e+03 nM

Kd	Variant
262 µM	chain 2 R47E

Variants of: B3
Assay: ITC; parent: 1.14e+04 nM

Variant	Kd
chain 1 S19A	9.5 µM
chain 1 S19E	2.6 µM
chain 1 S18E	2.4 µM
chain 1 S18A	10.6 µM
chain 1 S18A, chain 1 S19A	8 µM
chain 1 S18E, chain 1 S19E	0.9 µM
chain 1 S34A	7.1 µM

More lines, now with the values ahead:

Kd	Variant
7.3 µM	chain 1 S34A, chain 1 S35A
115 µM	chain 1 S34E, chain 1 S35E
27.2 µM	chain 1 S34E
57.8 µM	chain 1 S35E
7.9 µM	chain 1 S35A

Variants of: B3
Assay: ITC; parent: 1.14e+04 nM
Remark: another data set of the same source

Kd	Variant
862 µM	chain 1 D21A, chain 1 E22A
138 µM	chain 1 V29A
106 µM	chain 1 F25A

Variants of: B3
Assay: ITC; parent: 1.14e+04 nM
Remark: another data set of the same source

Kd	Variant
12.3 µM	chain 2 R32A
14.4 µM	chain 2 D89R

Variants of: B3
Assay: ITC; parent: 1.14e+04 nM
Remark: another data set of the same source

Kd	Variant
909 µM	chain 2 F60A
